These results are taken from publication PMC6103272, “Genome-Wide Association Studies of Free Amino Acid Levels by Six Multi-Locus Models in Bread Wheat” (Frontiers in Plant Science, 2018).

The subject of one data set is T1, TraesCS1D01G052500.
T1 construct: gene TDC; full-length cDNA in pGEX-6p-1; E. coli BL21(DE3)
Description: decarboxylase kinetics, Michaelis-Menten fit; product tryptamine by LC-MS. It counts as biochemical, Triticum aestivum. To be noted: 50 ppm PLP; 10-1,250 uM tryptophan; assay buffer of the standard assay 50 mM Tris-HCl pH 8.0, 37 C.

The subject of data set [1] is N[C@@H](Cc1c[nH]c2ccccc12)C(=O)O. The description is as above. Format: biochemical, Oryza sativa. To be noted: 50 ppm PLP, 10-1,250 uM tryptophan, assay buffer of the standard assay 50 mM Tris-HCl pH 8.0, 37 C.

As for `N[C@@H](Cc1c[nH]c2ccccc12)C(=O)O` [tryptophan], the Michaelis-Menten constant (Km) (commonly the concentration of substrate that gives half-maximal velocity) in the data set on TraesCS1D01G052500 is 100 ± 10 µM.

On to OsTDC1 (Oryza sativa Japonica Group), for which, in data set [1], the Km stood at 310 ± 30 µM; the kcat – broadly, the number of substrate molecules converted per active site and unit of time at saturation – came out at 3.66 ± 0.27 s⁻¹; the kcat/Km (in general, the second-order rate constant that governs catalysis at low substrate concentration) was 11800 M⁻¹ s⁻¹.
